Reference: patent US20240287501A1 (VIB VZW, published 2024)

Key:
[1] = target: T1, Rat Vesicular GLUtamate Transporter 1 (full-length, HEK293T lysate of Example 7) (rat, UniProt Q62634 1-560); assay: NANEX: capture from DDM lysate of HEK293T cells, elution with the same Nb
T1 construct: mature; Produced in HEK293T cells as published (Schenck et al., 2017), solubilised in DDM; also called rVGLUT1; rat VGLUT1
T1 sequence (looked up): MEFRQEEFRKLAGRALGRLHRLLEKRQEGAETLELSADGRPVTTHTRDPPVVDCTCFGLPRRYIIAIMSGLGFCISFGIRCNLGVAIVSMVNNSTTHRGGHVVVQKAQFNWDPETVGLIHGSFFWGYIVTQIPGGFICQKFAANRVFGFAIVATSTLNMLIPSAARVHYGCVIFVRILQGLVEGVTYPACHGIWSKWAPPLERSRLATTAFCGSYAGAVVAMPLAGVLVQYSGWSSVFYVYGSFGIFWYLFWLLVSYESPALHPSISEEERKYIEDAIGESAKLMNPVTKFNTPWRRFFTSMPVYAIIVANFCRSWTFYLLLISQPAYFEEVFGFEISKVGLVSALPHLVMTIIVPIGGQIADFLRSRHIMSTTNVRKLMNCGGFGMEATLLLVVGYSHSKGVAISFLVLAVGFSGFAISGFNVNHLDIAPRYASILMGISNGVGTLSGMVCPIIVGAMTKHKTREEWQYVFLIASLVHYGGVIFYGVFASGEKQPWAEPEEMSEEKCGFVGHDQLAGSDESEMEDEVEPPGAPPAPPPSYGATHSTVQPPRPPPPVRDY

[2] = target: T2, GFP-tagged SIS1 (Saccharomyces cerevisiae, UniProt P25294 1-352); assay: co-immunoprecipitation, Nb coupled to NHS-agarose beads, lysate of the yeast strain expressing the GFP-tagged target, Western blot anti-GFP
T2 construct: Yeast GFP Fusion Collection strain; also called Yeast GFP fusion collection GFP(+)22, E5; not shown: GFP tag
T2 sequence (looked up): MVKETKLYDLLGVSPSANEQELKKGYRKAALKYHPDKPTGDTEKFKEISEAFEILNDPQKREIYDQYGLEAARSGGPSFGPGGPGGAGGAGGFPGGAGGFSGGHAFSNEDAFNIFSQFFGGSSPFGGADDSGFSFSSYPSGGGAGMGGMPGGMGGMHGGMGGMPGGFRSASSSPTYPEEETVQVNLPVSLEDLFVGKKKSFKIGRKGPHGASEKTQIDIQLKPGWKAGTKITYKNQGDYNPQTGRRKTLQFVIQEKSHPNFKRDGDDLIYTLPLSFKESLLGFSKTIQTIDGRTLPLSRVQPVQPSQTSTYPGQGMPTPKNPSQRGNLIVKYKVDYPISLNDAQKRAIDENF
Experimental: One SIS1-specific Nanobody (44=Nb clone CA17444 corresponding to SEQ ID NO: 9), three ALD6-specific Nanobodies (53=CA17453-SEQ ID NO: 10, 54=CA17454-SEQ ID NO: 11, 60=CA17460-SEQ ID NO: 12), two BMH1-specific Nanobodies (58=CA17458-SEQ ID NO: 13, 59=CA17459-SEQ ID NO: 14) were characterized by co-immunoprecipitation assays. Each target-specific Nanobodies was covalently linked to NHS-agarose beads. The beads that were functionalized with these target-specific Nanobodies were incubated for an hour at 4° C. on a rotating device with either an EBY100 lysate or the lysate of the engineered Yeast strain expressing the target (Yeast GFP fusion collection reference for SIS1: GFP(+)22, E5, for ALD6: GFP(+)15, F1, for BMH1: GFP(+)27, D5) as a GFP-tagged protein. After washing, these beads were resuspended in SDS-PAGE loading dye and analyzed on SDS-PAGE (FIG. 8A). Separated proteins were transferred to a PVDF membrane and the Western blot (FIG. 8B) was developed with GFP-specific antibody to confirm the presence of GFP-tagged targets.

[3] = target: T3, SIS1 (native, from EBY100 lysate) (Saccharomyces cerevisiae, UniProt P25294 1-352); assay: co-IP, Nb on NHS-agarose beads, EBY100 yeast lysate, SDS-PAGE
T3 construct: mature; Endogenous untagged protein; also called YNL007C
T3 sequence (looked up): T2 sequence (looked up)

[4] = target: T4, GFP-tagged BMH1 (Saccharomyces cerevisiae, UniProt P29311 2-267); assay: co-IP, Nb on NHS-agarose beads, lysate of GFP-fusion yeast strain, SDS-PAGE and anti-GFP Western blot
T4 construct: Yeast GFP Fusion Collection strain; also called Yeast GFP fusion collection GFP(+)27, D5; not shown: GFP tag
T4 sequence (looked up): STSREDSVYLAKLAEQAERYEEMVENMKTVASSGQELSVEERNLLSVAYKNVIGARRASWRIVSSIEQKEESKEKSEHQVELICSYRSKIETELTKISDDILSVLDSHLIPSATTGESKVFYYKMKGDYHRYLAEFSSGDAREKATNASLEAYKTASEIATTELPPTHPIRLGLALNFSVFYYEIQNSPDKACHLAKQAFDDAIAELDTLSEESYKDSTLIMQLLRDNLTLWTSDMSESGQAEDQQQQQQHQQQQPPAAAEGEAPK
From the text: After washing, these beads were resuspended in SDS-PAGE loading dye and analyzed on SDS-PAGE (FIG. 8A). Separated proteins were transferred to a PVDF membrane and the Western blot (FIG. 8B) was developed with GFP-specific antibody to confirm the presence of GFP-tagged targets.
For each target selection of binders in this example, as detailed in Table 2, after 3 rounds of selection by panning using NANEX technology, individual clones were isolated from the enriched sub-library by plating tenfold serial dilutions of the overnight-grown phage-infected E. coli TG1 cells in LB. 96 individual clones were picked and grown in a 96-well plate containing LB supplemented with 100 μg/ml ampicillin. Plasmids containing the Nanobody encoding genes were purified, sequenced and grouped into sequence families (Material and methods). A representative member of each sequence family was selected. Their encoding plasmid was transformed into the E. coli WK6 expression strain to express and purify each Nanobody of interest. […] After washing, these beads were resuspended in SDS-PAGE loading dye and analyzed on SDS-PAGE (as in the Figure specified in Table 2 for each target). […] For each target-specific Nanobody analysed in this way, the co-immunoprecipitation with the EBY100 lysate gives a predominant band corresponding to the expected molecular weight of the target protein. […]

[5] = target: T5, BMH1 (native, from EBY100 lysate) (Saccharomyces cerevisiae, UniProt P29311 2-267); assay: co-IP, Nb on NHS-agarose beads, EBY100 yeast lysate, SDS-PAGE
T5 construct: mature; Endogenous untagged protein; also called YER177W
T5 sequence (looked up): T4 sequence (looked up)

[6] = target: T6, GFP-tagged SXM1 (Saccharomyces cerevisiae, UniProt Q04175 1-944); assay: co-immunoprecipitation, Nb coupled to NHS-agarose beads, lysate of the yeast strain expressing the GFP-tagged target, Western blot anti-GFP
T6 construct: Yeast GFP Fusion Collection strain; also called Yeast GFP fusion collection GFP(+)04, H9; not shown: GFP tag
T6 sequence (looked up): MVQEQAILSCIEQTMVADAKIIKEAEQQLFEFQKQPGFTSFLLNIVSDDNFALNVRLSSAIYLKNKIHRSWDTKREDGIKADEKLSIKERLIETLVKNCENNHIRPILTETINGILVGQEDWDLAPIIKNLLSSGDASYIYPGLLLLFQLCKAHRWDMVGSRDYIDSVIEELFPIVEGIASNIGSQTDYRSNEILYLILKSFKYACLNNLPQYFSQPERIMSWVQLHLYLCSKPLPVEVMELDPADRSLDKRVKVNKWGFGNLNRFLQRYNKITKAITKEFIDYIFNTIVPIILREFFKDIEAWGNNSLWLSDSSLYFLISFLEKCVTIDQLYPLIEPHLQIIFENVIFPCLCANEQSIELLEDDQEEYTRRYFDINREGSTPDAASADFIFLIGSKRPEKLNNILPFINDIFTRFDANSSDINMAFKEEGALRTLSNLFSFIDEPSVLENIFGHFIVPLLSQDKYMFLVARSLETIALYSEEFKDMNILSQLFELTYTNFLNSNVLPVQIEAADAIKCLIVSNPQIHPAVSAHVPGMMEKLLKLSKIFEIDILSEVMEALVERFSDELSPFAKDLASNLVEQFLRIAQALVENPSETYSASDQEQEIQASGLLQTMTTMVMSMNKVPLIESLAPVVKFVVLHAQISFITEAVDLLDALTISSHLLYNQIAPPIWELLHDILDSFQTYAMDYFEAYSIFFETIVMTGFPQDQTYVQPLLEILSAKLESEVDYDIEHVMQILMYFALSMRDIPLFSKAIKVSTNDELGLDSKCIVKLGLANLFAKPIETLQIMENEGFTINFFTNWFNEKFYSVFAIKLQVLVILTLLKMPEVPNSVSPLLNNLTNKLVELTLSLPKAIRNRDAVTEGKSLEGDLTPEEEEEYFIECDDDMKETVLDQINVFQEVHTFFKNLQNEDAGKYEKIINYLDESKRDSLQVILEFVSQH
Experimental: One SXM1-specific Nanobody (30=Nb clone CA17530 corresponding to SEQ ID NO: 18) was characterized by co-immunoprecipitation assays. The SXM1-specific Nanobody was covalently linked to NHS-agarose beads. The beads that were functionalized with this SXM1-specific Nanobody were incubated for an hour at 4° C. on a rotating device with either an EBY100 lysate or the lysate of the engineered Yeast strain expressing SXM1 GFP(+)04, H9) as a GFP-tagged protein. After washing, these beads were resuspended in SDS-PAGE loading dye and analyzed on SDS-PAGE (FIG. 9A). Separated proteins were transferred to a PVDF membrane and the Western blot (FIG. 9B) was developed with GFP-specific antibody to confirm the presence of GFP-tagged SXM1.

[7] = target: T7, SXM1 (native, from EBY100 lysate) (Saccharomyces cerevisiae, UniProt Q04175 1-944); assay: co-IP, Nb on NHS-agarose beads, EBY100 yeast lysate, SDS-PAGE
T7 construct: mature; Endogenous untagged protein; also called YDR395W
T7 sequence (looked up): T6 sequence (looked up)

B1: CA17875 (VHH)
VHH: QVQLQESGGGLVQAGGSLRLSCAASGRSVRTWSMGWFRQPPGKERELVAGISWSGSGTYHADSVKGRFTISRDNAKNMVYLQMNSLKPEDTAVYYCAAGQTGWNPGSDFHRWGKGTQVTVSS
notes: C-terminal 6xHis-EPEA tag is part of the entry; also called rVGLUT1-specific trapper/stripper
Question: Does B1 bind [1]?
Answer: binds

B2: CA17444 (VHH)
VHH: QVQLVESGGGLVQPGGSLRLSCAASGFTLDYYAIGWFRQAPGKEREGVSCISSSDGSTVYADSVKGRFTISRDNAKNTVYLQMSNLKPEDTAVYYCATDQITSTGCPDFDSWGQGTQVTVSS
notes: C-terminal 6xHis-EPEA tag is part of the entry
Question: What does the source list for B2?
Answer: binding result [2]: binds; binding result [3]: binds

B3: CA17459 (VHH)
VHH: QVQLVESGGGEVQTGGSLRLSCTASGSRLNFGSWNWYRKRGENYRELVAAMGPSTGHTHYGDSMKGRVTISLNAAKDTLFLQMNSLKPEDTAVYYCAADLDGLGFPRGSFYGMDYWGKGTQVTVSS
notes: as for B2
Question: Does B3 bind [4]?
Answer: binds

Question: Does B3 bind [5]?
Answer: binds

B4: CA17530 (VHH)
VHH: QVQLVESGGGLVQTGGSLRLSCVVSKTLFSINAMAWYRQSPGKPRELVAGWTSGGRTSYGDSVKGRFTISRDNAENTLYLQMNDVKPEDTAVYHCAADYLVVAGKPGYDYAYWGQGTQVTVSS
notes: as for B2
Question: What does the source list for B4?
Answer: binding result [6]: binds; binding result [7]: binds
